The values below come from the supplement of paper PMC10567573.

To fix the notation:
B1: KRT13 (parent)
chain: KTIEELRDKILTATIENNRVILEI
B2: BTBD1 (parent)
chain: FVLGKGRGAAAAGGPQRIPAHRFV
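Also: lentivirally expressed fusions sorted by FACS into six bins by GFP to DsRed ratio, PSI derived from sequencing read proportions per bin multiplied by bin number.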

The variants in one series derive from B1. Briefly: protein stability index of a GFP-peptide fusion (GPS, HEK-293T) (PSI 1-6); higher = more stable. Conditions: c terminus: a fixed tail appended.
For the variant KTIEELRDKILTATIENNMVILEI [R19M], the protein stability index was found to be 2.14.
Still for that read-out and setting: then KTIEELRDKILTATIENNWVILEI [R19W], with 2.74; and KTIEELRDKILTATIENNTVILEI [R19T], with 2.99; and KTIEELRDKILTATIENNEVILEI [R19E], with 2.47.
Still for that read-out and setting: then KTIEELRDKILTATIENNDVILEI [R19D], with 2.11; and KTIEELRDKILTATIENNGVILEI [R19G], with 3.05; and KTIEELRDKILTATIENNVVILEI [R19V], with 2.64.
As to KTIEELRDKILTATIENNHVILEI [R19H], the protein stability index came to 3.1.
As to KTIEELRDKILTATIENNIVILEI [R19I], the protein stability index worked out at 3.
Take KTIEELRDKILTATIENNPVILEI [R19P]: the protein stability index worked out at 2.25.
Same read-out and setting: then KTIEELRDKILTATIENNQVILEI [R19Q], with 2.64.

Variants of B2 are the subject of another series. The description is as above. Conditions: c terminus: a fixed tail appended.
Take FHLGKGRGAAAAGGPQRIPAHRFV [V2H]: the protein stability index is 2.22.
Still for that read-out and setting: next, FELGKGRGAAAAGGPQRIPAHRFV [V2E]: 3.38.
The same measure, in the same setting: then FALGKGRGAAAAGGPQRIPAHRFV [V2A], with 1.99; and FKLGKGRGAAAAGGPQRIPAHRFV [V2K], with 2.85; and FTLGKGRGAAAAGGPQRIPAHRFV [V2T], with 2.35.
Still for that read-out and setting: then FGLGKGRGAAAAGGPQRIPAHRFV [V2G], with 2.74; and FWLGKGRGAAAAGGPQRIPAHRFV [V2W], with 1.76.
Turning to FCLGKGRGAAAAGGPQRIPAHRFV [V2C], the protein stability index was 2.18.
On the same count and under the same terms, then FLLGKGRGAAAAGGPQRIPAHRFV [V2L], with 1.97; and FNLGKGRGAAAAGGPQRIPAHRFV [V2N], with 3.23; and FQLGKGRGAAAAGGPQRIPAHRFV [V2Q], with 3.
Take FFLGKGRGAAAAGGPQRIPAHRFV [V2F]: the protein stability index was 1.67.
On the same count and under the same terms, next, FDLGKGRGAAAAGGPQRIPAHRFV [V2D]: 2.88.
Still for that read-out and setting: next, FSLGKGRGAAAAGGPQRIPAHRFV [V2S]: 3.35.
Consider FMLGKGRGAAAAGGPQRIPAHRFV [V2M], for which the protein stability index was 2.21.
For the variant FILGKGRGAAAAGGPQRIPAHRFV [V2I], the protein stability index is 1.68.
Same read-out and setting: next, FYLGKGRGAAAAGGPQRIPAHRFV [V2Y]: 1.8.
For FVQGKGRGAAAAGGPQRIPAHRFV [L3Q], the protein stability index came to 1.3.
For the variant FVTGKGRGAAAAGGPQRIPAHRFV [L3T], the protein stability index worked out at 2.01.
The same measure, in the same setting: next, FVYGKGRGAAAAGGPQRIPAHRFV [L3Y]: 1.79; FVWGKGRGAAAAGGPQRIPAHRFV [L3W]: 1.14; FVVGKGRGAAAAGGPQRIPAHRFV [L3V]: 1.61.
On the same count and under the same terms, next, FVAGKGRGAAAAGGPQRIPAHRFV [L3A]: 2.17; FVIGKGRGAAAAGGPQRIPAHRFV [L3I]: 1.68; FVKGKGRGAAAAGGPQRIPAHRFV [L3K]: 2.2.
On the same count and under the same terms, then FVGGKGRGAAAAGGPQRIPAHRFV [L3G], with 1.61; and FVFGKGRGAAAAGGPQRIPAHRFV [L3F], with 1.61; and FVEGKGRGAAAAGGPQRIPAHRFV [L3E], with 1.56.
With FVHGKGRGAAAAGGPQRIPAHRFV [L3H], the protein stability index is 2.63.
Same read-out and setting: next, FVNGKGRGAAAAGGPQRIPAHRFV [L3N]: 2.12; FVMGKGRGAAAAGGPQRIPAHRFV [L3M]: 1.92.
Consider FVDGKGRGAAAAGGPQRIPAHRFV [L3D], for which the protein stability index stood at 2.2.
Take FVSGKGRGAAAAGGPQRIPAHRFV [L3S]: the protein stability index turned out to be 3.
The same measure, in the same setting: then FVCGKGRGAAAAGGPQRIPAHRFV [L3C], with 1.67.
In the case of FVLVKGRGAAAAGGPQRIPAHRFV [G4V], the protein stability index was 2.3.
Still for that read-out and setting: next, FVLRKGRGAAAAGGPQRIPAHRFV [G4R]: 2.33; FVLCKGRGAAAAGGPQRIPAHRFV [G4C]: 1.54.
Still for that read-out and setting: next, FVLDKGRGAAAAGGPQRIPAHRFV [G4D]: 1.53; FVLYKGRGAAAAGGPQRIPAHRFV [G4Y]: 2.21.
Still for that read-out and setting: then FVLHKGRGAAAAGGPQRIPAHRFV [G4H], with 2.
For FVLNKGRGAAAAGGPQRIPAHRFV [G4N], the protein stability index is 2.36.
The same measure, in the same setting: then FVLFKGRGAAAAGGPQRIPAHRFV [G4F], with 2.27; and FVLIKGRGAAAAGGPQRIPAHRFV [G4I], with 1.98.
For the variant FVLSKGRGAAAAGGPQRIPAHRFV [G4S], the protein stability index was found to be 1.61.
Same read-out and setting: next, FVLKKGRGAAAAGGPQRIPAHRFV [G4K]: 1.64; FVLWKGRGAAAAGGPQRIPAHRFV [G4W]: 1.2; FVLLKGRGAAAAGGPQRIPAHRFV [G4L]: 2.39.
Same read-out and setting: then FVLPKGRGAAAAGGPQRIPAHRFV [G4P], with 2.59; and FVLMKGRGAAAAGGPQRIPAHRFV [G4M], with 1.38.
The same measure, in the same setting: next, FVLAKGRGAAAAGGPQRIPAHRFV [G4A]: 1.73; FVLTKGRGAAAAGGPQRIPAHRFV [G4T]: 1.46; FVLEKGRGAAAAGGPQRIPAHRFV [G4E]: 1.94.
For FVLQKGRGAAAAGGPQRIPAHRFV [G4Q], the protein stability index worked out at 1.4.
Same read-out and setting: then FVLGFGRGAAAAGGPQRIPAHRFV [K5F], with 1.95; and FVLGCGRGAAAAGGPQRIPAHRFV [K5C], with 1.66.
The same measure, in the same setting: then FVLGNGRGAAAAGGPQRIPAHRFV [K5N], with 2.04; and FVLGPGRGAAAAGGPQRIPAHRFV [K5P], with 1.74; and FVLGAGRGAAAAGGPQRIPAHRFV [K5A], with 1.2.
The same measure, in the same setting: then FVLGMGRGAAAAGGPQRIPAHRFV [K5M], with 2.82; and FVLGDGRGAAAAGGPQRIPAHRFV [K5D], with 1.89.
For the variant FVLGLGRGAAAAGGPQRIPAHRFV [K5L], the protein stability index was found to be 1.59.
Still for that read-out and setting: then FVLGHGRGAAAAGGPQRIPAHRFV [K5H], with 1.95; and FVLGIGRGAAAAGGPQRIPAHRFV [K5I], with 1.75.
The same measure, in the same setting: next, FVLGRGRGAAAAGGPQRIPAHRFV [K5R]: 2.08; FVLGQGRGAAAAGGPQRIPAHRFV [K5Q]: 1.8; QVLGKGRGAAAAGGPQRIPAHRFV [F1Q]: 3.28.
Still for that read-out and setting: next, SVLGKGRGAAAAGGPQRIPAHRFV [F1S]: 2.92.
In the case of HVLGKGRGAAAAGGPQRIPAHRFV [F1H], the protein stability index is 3.4.
Same read-out and setting: then IVLGKGRGAAAAGGPQRIPAHRFV [F1I], with 1.91.
The same measure, in the same setting: then GVLGKGRGAAAAGGPQRIPAHRFV [F1G], with 3.51.
Still for that read-out and setting: then DVLGKGRGAAAAGGPQRIPAHRFV [F1D], with 3.02; and LVLGKGRGAAAAGGPQRIPAHRFV [F1L], with 2.51.
In the case of WVLGKGRGAAAAGGPQRIPAHRFV [F1W], the protein stability index is 1.95.
Take KVLGKGRGAAAAGGPQRIPAHRFV [F1K]: the protein stability index is 2.99.
Same read-out and setting: next, AVLGKGRGAAAAGGPQRIPAHRFV [F1A]: 2.66; RVLGKGRGAAAAGGPQRIPAHRFV [F1R]: 3.35; TVLGKGRGAAAAGGPQRIPAHRFV [F1T]: 3.32.
On the same count and under the same terms, then PVLGKGRGAAAAGGPQRIPAHRFV [F1P], with 3.04; and YVLGKGRGAAAAGGPQRIPAHRFV [F1Y], with 1.26; and CVLGKGRGAAAAGGPQRIPAHRFV [F1C], with 2.22.
On the same count and under the same terms, next, VVLGKGRGAAAAGGPQRIPAHRFV [F1V]: 2.21.
As for NVLGKGRGAAAAGGPQRIPAHRFV [F1N], the protein stability index was 3.31.
Still for that read-out and setting: next, MVLGKGRGAAAAGGPQRIPAHRFV [F1M]: 2.29.
